Results as given in paper PMC3656124, “DNA Topoisomerase II Is Involved in Regulation of Cyst Wall Protein Genes and Differentiation in Giardia lamblia” (PLoS Neglected Tropical Diseases, 2013).
Positions count from the first letter of the chain named.

Assays:
Assay in all cases: EMSA; EMSA: 0.02 pmol 5'-labeled probe, 5 ng protein, 20 ul, 0.5 ug poly(dI-dC), 15 min, room temperature, 6% acrylamide gel; buffer, salt and pH only by citation
Topo IIN = target: T1, Topo IIN (Giardia lamblia, UniProt E2RU90 1-488); conditions: protein: recombinant; tags: C-terminal V5-His; label: 5'-32P
T1 sequence: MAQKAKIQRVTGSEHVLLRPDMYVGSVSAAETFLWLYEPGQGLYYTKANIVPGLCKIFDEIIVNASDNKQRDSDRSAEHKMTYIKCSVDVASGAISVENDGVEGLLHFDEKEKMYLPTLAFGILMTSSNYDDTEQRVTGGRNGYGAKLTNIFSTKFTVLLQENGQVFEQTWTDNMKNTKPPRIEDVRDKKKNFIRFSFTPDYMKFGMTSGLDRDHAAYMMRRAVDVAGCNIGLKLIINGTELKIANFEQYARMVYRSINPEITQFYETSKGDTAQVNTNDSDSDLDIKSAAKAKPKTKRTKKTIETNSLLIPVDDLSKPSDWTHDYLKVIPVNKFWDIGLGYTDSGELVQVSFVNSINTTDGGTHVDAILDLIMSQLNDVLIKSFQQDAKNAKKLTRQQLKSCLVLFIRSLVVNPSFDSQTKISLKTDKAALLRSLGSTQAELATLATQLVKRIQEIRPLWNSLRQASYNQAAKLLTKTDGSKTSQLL

Topo IICm1 = target: T2, Topo IICm1 (Giardia lamblia, UniProt E2RU90 489-1491, Y847H); conditions: protein: recombinant; tags: C-terminal V5-His; chain copies: 2; label: 5'-32P
T2 sequence: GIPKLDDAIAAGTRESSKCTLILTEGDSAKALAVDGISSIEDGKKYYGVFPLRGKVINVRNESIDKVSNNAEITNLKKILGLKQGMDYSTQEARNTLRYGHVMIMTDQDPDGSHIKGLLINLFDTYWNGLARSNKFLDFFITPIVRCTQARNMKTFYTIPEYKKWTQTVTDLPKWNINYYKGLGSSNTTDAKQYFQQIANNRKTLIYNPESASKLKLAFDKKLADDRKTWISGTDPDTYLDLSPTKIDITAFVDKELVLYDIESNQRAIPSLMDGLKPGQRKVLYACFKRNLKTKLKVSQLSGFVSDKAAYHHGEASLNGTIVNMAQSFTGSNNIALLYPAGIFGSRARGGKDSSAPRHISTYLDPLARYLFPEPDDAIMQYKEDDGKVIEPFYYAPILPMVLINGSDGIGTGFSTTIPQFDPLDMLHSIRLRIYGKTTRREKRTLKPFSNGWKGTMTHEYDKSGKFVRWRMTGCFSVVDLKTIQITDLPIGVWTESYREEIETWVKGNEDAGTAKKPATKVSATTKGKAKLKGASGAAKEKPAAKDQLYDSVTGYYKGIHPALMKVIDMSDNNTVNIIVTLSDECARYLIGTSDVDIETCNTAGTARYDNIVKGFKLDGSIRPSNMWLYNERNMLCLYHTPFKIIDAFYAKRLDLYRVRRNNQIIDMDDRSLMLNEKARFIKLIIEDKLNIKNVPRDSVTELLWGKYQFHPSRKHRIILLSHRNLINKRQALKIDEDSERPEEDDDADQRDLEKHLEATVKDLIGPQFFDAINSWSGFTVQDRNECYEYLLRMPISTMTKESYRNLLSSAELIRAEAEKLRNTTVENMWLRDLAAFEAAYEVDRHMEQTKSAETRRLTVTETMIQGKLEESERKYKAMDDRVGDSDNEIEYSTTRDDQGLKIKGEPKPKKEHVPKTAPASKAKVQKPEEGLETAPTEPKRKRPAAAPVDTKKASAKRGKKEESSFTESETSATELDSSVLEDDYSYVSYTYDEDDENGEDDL

Topo IIC = target: T3, Topo IIC (Giardia lamblia, UniProt E2RU90 489-1491); conditions: protein: recombinant; tags: C-terminal V5-His; chain copies: 2; label: 5'-32P
T3 sequence: T2 sequence with H359Y

B1: IIBS (dsDNA)
DNA 1: ATGAAATCTAACAATGCGCTCATCGTCATCCTCGGC
DNA 2: GCCGAGGATGACGATGAGCGCATTGTTAGATTTCAT
- binding result (Topo IIN): no binding
- binding result (Topo IICm1): binds
- binding result (Topo IIC): binds
